Earlier results as cited in publication PMC3325482.

Biological target: Cd200R (Rattus norvegicus) (UniProt Q9ES58)
Chain of UniProt Q9ES58 (Q9ES58 24-239): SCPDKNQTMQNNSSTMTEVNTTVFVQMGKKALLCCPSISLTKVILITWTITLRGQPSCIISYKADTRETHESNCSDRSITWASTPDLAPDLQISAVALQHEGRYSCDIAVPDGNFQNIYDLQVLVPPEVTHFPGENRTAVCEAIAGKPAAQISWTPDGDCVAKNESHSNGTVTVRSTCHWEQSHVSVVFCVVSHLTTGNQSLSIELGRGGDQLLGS

Kd: 2000 nM
Substance: Cd200 (from UniProt P04218)
